Here are results for two substances from patent US20150218286A1.

The target of the experiment is CD22 (human) (UniProt P20273). The experiment in a line: cell-based or functional assay.

Substance HA22-LR-8X had an LC50, 697 cells (ALL), second series of 1 ng/mL; an LC50, EU cells (ALL), second series of 0.3 ng/mL; an LC50, KOPN 8 cells (ALL), second series of 0.4 ng/mL; an LC50, NALM 6 cells (ALL), second series of 2 ng/mL. In addition, the LC50, RAJI cells (Burkitt), second series was 0.2 ng/mL and the LC50, REH cells (ALL), second series was found to be 0.5 ng/mL.
In turn, HA22-LR-KDEL yielded an LC50, 697 cells (ALL) of 0.2 ng/mL; an LC50, EU cells (ALL) of 0.3 ng/mL; an LC50, KOPN 8 cells (ALL) of 0.3 ng/mL; an LC50, NALM 6 cells (ALL) of 1 ng/mL. This substance also registered an LC50, RAJI cells (Burkitt) of 0.2 ng/mL and an LC50, REH cells (ALL) of 0.2 ng/mL.
